Assay results as given in patent US12364768B2, “Nectin-4 antibody conjugates and uses thereof” (ARARIS BIOTECH AG, priority 2020, dated 2025).
Positions count from the first letter of the chain named. In names and notes the source's numbering stands.

T1: mouse Nectin-4 (Mus musculus, UniProt Q8R007)
T1 sequence (Q8R007 31-508): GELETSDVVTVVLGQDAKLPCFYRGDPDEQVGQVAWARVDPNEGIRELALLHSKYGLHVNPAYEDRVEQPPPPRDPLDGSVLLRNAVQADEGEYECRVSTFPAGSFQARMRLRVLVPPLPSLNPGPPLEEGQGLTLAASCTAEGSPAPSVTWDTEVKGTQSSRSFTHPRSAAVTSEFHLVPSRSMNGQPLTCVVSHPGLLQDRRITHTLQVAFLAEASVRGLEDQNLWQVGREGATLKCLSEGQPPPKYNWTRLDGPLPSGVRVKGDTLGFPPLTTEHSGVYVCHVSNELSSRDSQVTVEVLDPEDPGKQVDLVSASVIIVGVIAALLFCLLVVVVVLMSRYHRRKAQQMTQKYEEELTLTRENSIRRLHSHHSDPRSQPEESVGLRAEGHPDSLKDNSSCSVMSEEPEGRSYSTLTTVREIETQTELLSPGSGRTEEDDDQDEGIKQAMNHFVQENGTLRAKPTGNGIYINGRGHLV

T2: TIGIT binding to Nectin-4 expressing T24 tumor cells (Homo sapiens, UniProt Q96NY8)
T2 construct: expressed in transfected cells; host or cells: T24 clone, lentiviral transduction
T2 sequence (Q96NY8 32-510): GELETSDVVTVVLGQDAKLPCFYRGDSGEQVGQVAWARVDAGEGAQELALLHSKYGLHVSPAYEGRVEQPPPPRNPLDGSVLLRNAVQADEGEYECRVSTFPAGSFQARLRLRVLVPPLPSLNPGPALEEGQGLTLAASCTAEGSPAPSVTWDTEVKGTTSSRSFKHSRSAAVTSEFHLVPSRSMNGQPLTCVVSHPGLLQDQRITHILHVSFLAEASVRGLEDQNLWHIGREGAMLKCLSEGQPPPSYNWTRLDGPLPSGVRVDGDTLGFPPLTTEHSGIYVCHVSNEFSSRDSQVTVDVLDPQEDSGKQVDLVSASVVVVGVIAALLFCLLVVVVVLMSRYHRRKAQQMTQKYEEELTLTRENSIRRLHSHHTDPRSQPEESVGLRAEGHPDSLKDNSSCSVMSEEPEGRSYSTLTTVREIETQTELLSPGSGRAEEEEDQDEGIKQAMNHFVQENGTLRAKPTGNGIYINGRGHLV

B1: hzD6.3C VL: "CDR1 mutation to remove a potential deamidation site ... hzD6.3C VL N33Q (position 30c under Kabat), SEQ ID NO:15" (antibody, V domains shown)
VL: DIVMTQTPLSLPVTPGEPASISCRSSQSIVHSQGNTYLEWYLQKPGQSPQLLIYKVSNRFSGVPDRFSGSGSGTDFTLKISRVEAEDVGVYYCFQGSHVPYTFGGGTKVEIK
modifications: Synthetic sequence hzD6.3C VL
B2: hzD6.4C VL: "a FR1 and a CDR1 mutation (hzD6.4C VL I2V N33Q (positions 2 and 30c under Kabat), SEQ ID NO:16" (antibody, V domains shown)
VL: B1 VL with I2V
modifications: Synthetic sequence hzD6.4C VL
B3: hzD6.2C-mIgG2a: "an anti-Nectin-4 antibody (hzD6.2C-mIgG2a)" (antibody, V domains shown)
VH: EVQLVESGGGLVQPGGSLRLSCAASGFTFSNYDMSWVRQAPGKGLEWVATISSGGSYTYYVDSVKGRFTISRDNAKNSLYLQMNSLRAEDTAVYYCARQELGSYYAMDYWGQGTTVTVSS
VL: B1 VL with Q33N, G34A

Key:
mouse Nectin-4 = target: T1, mouse Nectin-4; assay: Binding of purified humanized D6C mAbs to mouse Nectin-4; details: mAb of hzD6C VH with the named VL
Description: The humanized D6C VH region was combined with human IgG1 (SEQ ID NO:18) heavy chain constant region, and each humanized D6C VL region was combined individually with the human kappa light chain constant region (SEQ ID NO:20). The humanized D6C heavy chain (SEQ ID NO:24) was co-transfected with each humanized light chain (SEQ ID NOS:26-31) individually into CHO cells in a 30 mL culture, using the parental chimeric antibody, D6C, as a benchmark. A total of 7 mAbs were generated, purified, and analyzed for titer, purity, and binding.
Analytical size-exclusion chromatography was used to measure the percent purity (% protein of interest, POI), which is preferably 95% or greater. There was a reduction in percent purity seen with the chimeric D6C (84%) and the CDR grafted hzD6C VL (94%). The I2V, N33Q, and G34A mutations in hzD6.1C VL (98%), hzD6.2C VL (95%), and hzD6.3C VL (96%), respectively, as well as the […] N33Q double mutation hzD6.4C VL (99%), resolve the purity issue.

[1] = target: T2, TIGIT binding to Nectin-4 expressing T24 tumor cells; assay: Blocking of TIGIT-Fc binding to Nectin-4 expressing T24 tumor cells; type: cell-based; details: rhTIGIT-Fc 40 nM; antibody at various concentrations from 400 nM, 1:2 dilutions
Text: Anti-Nectin-4 antibody was examined to determine whether it could block binding of TIGIT to Nectin-4 expressing T24 tumor cells. Stable Nectin-4 expression in a T24 clone was achieved by Nectin4-lentiviral transduction. Recombinant human TIGIT-Fc chimera was purchased from R & D Systems. Briefly, cell binding was examined on Nectin-4 expressing T24 cells, which were dispensed into wells of V-bottom 96-well assay plates (1×10^5 cells/well), spun down, and the supernatant discarded. The cells were incubated with an anti-Nectin-4 antibody (hzD6.2C-mIgG2a) or an isotype control (mIgG2a) at eight different concentrations, starting with 400 nM and then 1:2 serial dilution, incubated at 4° C. for 30 min., and then rhTIGIT-Fc was added to each well at a final concentration of 40 nM. The treated cells were incubated at 4° C. for 30 min., washed three times, and then commercial PE anti-human Fc as a secondary antibody (1:200 dilution) was added and incubated at 4° C. for 20 min. The cells were washed twice and analyzed on BD Celesta™ flow cytometry. Percent of inhibition of TIGT (40 nM) binding due to anti-Nectin-4 antibody present was measured.

Row | Molecule | binding to mouse Nectin-4 (mouse Nectin-4) | blocking of TIGIT binding [1]
1 | B1 | no binding | 
2 | B2 | no binding | 
3 | B3 |  | more than 70%
